These are literature values, as cited in PMC9776569.

Among the targets are Asp87 (UniProt position 105, ALLSSDITASV); Lys96 (UniProt position 114, SVNCAKKIVSD); Lys97 (UniProt position 115, VNCAKKIVSDG); Asp18 (UniProt position 36, KRHGLDNYRGY); Lys1 (UniProt position 19, LAALGKVFGRC); Lys13 (UniProt position 31, LAAAMKRHGLD); Asp48 (UniProt position 66, TNRNTDGSTDY); His15 (UniProt position 33, AAMKRHGLDNY); Glu7 (UniProt position 25, VFGRCELAAAM); Lys33 (UniProt position 51, WVCAAKFESNF); Asp52 (UniProt position 70, TDGSTDYGILQ); Asp119 (UniProt position 137, RCKGTDVQAWI); Tyr23 (UniProt position 41, DNYRGYSLGNW); Lys116 (UniProt position 134, WRNRCKGTDVQ); Glu35 (UniProt position 53, CAAKFESNFNT); Cterm129 (UniProt position 147, IRGCRL-----); Asp101 (UniProt position 119, KKIVSDGNGMN); Tyr53 (UniProt position 71, DGSTDYGILQI); Tyr20 (UniProt position 38, HGLDNYRGYSL); Asp66 (UniProt position 84, RWWCNDGRTPG); Glu10 (UniProt position 92, KKLHKEPATLI); His8 (UniProt position 90, STKKLHKEPAT); Glu43 (UniProt position 125, LVDTPETKHPK); His121 (UniProt position 203, KPNNTHEQHLR); Glu75 (UniProt position 157, KKIEVEFDKGQ); Glu52 (UniProt position 134, PKKGVEKYGPE); Asp95 (UniProt position 177, AYIYADGKMVN); Glu122 (UniProt position 204, PNNTHEQHLRK); Glu101 (UniProt position 183, GKMVNEALVRQ); Glu67 (UniProt position 149, TKKMVENAKKI); Glu73 (UniProt position 155, NAKKIEVEFDK); Asp143 (UniProt position 225, NIWSEDNADSG); Glu57 (UniProt position 139, EKYGPEASAFT); Glu129 (UniProt position 211, HLRKSEAQAKK); His46 (UniProt position 128, TPETKHPKKGV); Asp146 (UniProt position 228, SEDNADSGQ--); Glu135 (UniProt position 217, AQAKKEKLNIW); His124 (UniProt position 206, NTHEQHLRKSE); Glu142 (UniProt position 224, LNIWSEDNADS); Asp40 (UniProt position 122, RLLLVDTPETK).

Data set [1] deals with Nterm1 (UniProt position 2, ----MSDKIIH). To be noted: redox state not stated in this article.
In another data set the target is Cys35 (UniProt position 36, EWCGPCKMIAP). To be noted: reduced (free thiols at Cys-32 and Cys-35).
The target in the next data set is Cys32 (UniProt position 33, FWAEWCGPCKM). The following applies: reduced (free thiols at Cys-32 and Cys-35).
Data set [2] concerns the target Asp26 (UniProt position 27, GAILVDFWAEW). The following applies: redox state not stated in this article.
In the next data set the target is His6 (UniProt position 7, SDKIIHLTDDS). To be noted: redox state not stated in this article.
Data set [3] deals with Asp20 (UniProt position 21, DVLKADGAILV). The following applies: redox state not stated in this article.
Data set [4] concerns the target Nterm1 (UniProt position 19, LAALGKVFGRC).
The target of the next data set is Asp58 (UniProt position 58, IFLEVDVDDCQ). To be noted: redox state not stated in this article.
In another data set the target is Glu68 (UniProt position 68, QDVASECEVKC). To be noted: redox state not stated in this article.
The next data set concerns the target Asp60 (UniProt position 60, LEVDVDDCQDV). The following applies: redox state not stated in this article.
Data set [5] deals with Asp20 (UniProt position 20, LDAAGDKLVVV). The following applies: redox state not stated in this article.
The next data set deals with Glu103 (UniProt position 103, EATINELV---). The following applies: redox state not stated in this article.
The next data set deals with Glu88 (UniProt position 88, GQKVGEFSGAN). To be noted: redox state not stated in this article.
The target in the next data set is Glu6 (UniProt position 6, MVKQIESKTAF). To be noted: redox state not stated in this article.
A further data set deals with Glu98 (UniProt position 98, NKEKLEATINE). To be noted: redox state not stated in this article.
For the next data set, the target named is Glu70 (UniProt position 70, VASECEVKCMP). To be noted: redox state not stated in this article.
For a further data set, the target named is Glu95 (UniProt position 95, SGANKEKLEAT). To be noted: redox state not stated in this article.
Another data set has as its target Glu13 (UniProt position 13, KTAFQEALDAA). The following applies: redox state not stated in this article.
The target of the next data set is Asp61 (UniProt position 61, EVDVDDCQDVA). The following applies: redox state not stated in this article.
Data set [6] deals with Asp26 (UniProt position 26, KLVVVDFSATW). The following applies: redox state not stated in this article.
In another data set the target is Glu56 (UniProt position 56, NVIFLEVDVDD). To be noted: redox state not stated in this article.
The next data set addresses Asp64 (UniProt position 64, VDDCQDVASEC). The following applies: redox state not stated in this article.
A further data set concerns the target Glu47 (UniProt position 47, FHSLSEKYSNV). To be noted: redox state not stated in this article.
The next data set addresses Asp16 (UniProt position 16, FQEALDAAGDK). To be noted: redox state not stated in this article.

A word on the pKa: it is the pH at which an ionisable group is half protonated. In the case of “Escherichia coli thioredoxin 1 (EcTrx) (Escherichia coli)”, the pKa with Nterm1 [1] is given as 7.40; in the data set with Cys35, 9.90; in the data set with Cys32, 7.10; with Asp26 [2] it was 7.50; in the data set with His6 it was 6.20; with Asp20 [3], 3.80.
Turning to “Hen egg-white lysozyme (HEWL) (Gallus gallus)”, the pKa is reported as 2.07 with Asp87; 10.80 in the data set with Lys96; 10.30 with Lys97; 7.90 in the data set with Nterm1 [4]; 2.66 with Asp18; 10.90 in the data set with Lys1. Also, the pKa was 10.60 with Lys13; 1.60 with Asp48; 5.36 with His15; 2.85 with Glu7; 10.60 with Lys33; 3.68 in the data set with Asp52. The pKa in the data set with Asp119 was 3.20; in the data set with Tyr23, 9.80; with Lys116, 10.40; in the data set with Glu35 it was 6.20; with Cterm129, 2.75; with Asp101 it was 4.09. Moreover, the pKa with Tyr53 is listed as 12.10; with Tyr20 it was 10.30; in the data set with Asp66, 0.90.
On to Human thioredoxin (hTrx) (Homo sapiens), for which the pKa is reported as 2.80 with Asp58; 4.90 with Glu68; 4.20 with Asp60; 3.80 with Asp20 [5]; 4.40 in the data set with Glu103; 3.70 in the data set with Glu88. For the same substance, the pKa is reported as 4.80 with Glu6; 3.90 with Glu98; 4.60 in the data set with Glu70; 4.10 with Glu95; 4.40 with Glu13; 5.30 in the data set with Asp61. Besides, the pKa in the data set with Asp26 [6] was 9.90; with Glu56 it was 3.10; with Asp64 it was 3.20; with Glu47, 4.10; with Asp16, 4.00.
“Staphylococcal nuclease (SNase) (Staphylococcus aureus)”: the pKa is reported as 2.82 with Glu10; 6.52 with His8; 4.32 with Glu43; 5.30 with His121; 3.26 in the data set with Glu75; 3.93 with Glu52. Moreover, the pKa in the data set with Asp95 is listed as 2.16; with Glu122, 3.89; in the data set with Glu101, 3.81; in the data set with Glu67, 3.76; with Glu73, 3.31; with Asp143, 3.80. The pKa is on record as 3.49 with Glu57; 3.75 with Glu129; 5.86 with His46; 3.86 with Asp146; 3.76 in the data set with Glu135; 5.73 with His124. Also, the pKa in the data set with Glu142 was 4.49; in the data set with Asp40, 3.87.
